According to patent publication US20200308301A1 (Novartis, published 2020):

Assays:
NOV1401 [1] = assay: cell-based or functional assay
NOV1401 [2] = target: T1, NOV1401; assay: SPR (ProteOn XPR36), NOV1401 immobilized, Fab as analyte, 1:1 Langmuir fit, average
T1 construct: It was amine-coupled to the chip in SPR, and used soluble and biotinylated in SET; also called anti-FXI/FXIa antibody NOV1401; anti-Factor XI/FXIa antibody NOV1401
Protocol: SPR binding experiments were performed on a ProteOn XPR36 instrument (Bio-Rad Laboratories, Inc.) in PBS/T buffer (50 mM phosphate, 150 mM NaCl, pH 7.4, 0.005% v/v Tween-20) at 25° C. NOV1401 (‘Ligand’) was immobilized onto an activated ProteOn GLC sensor chip (Bio-Rad Laboratories, Inc.) using standard amine coupling procedures as described by the manufacturer. Briefly, NOV1401 was injected at a concentration of 10 μg/ml in 20 mM sodium acetate, pH 5.0 and at a flow rate of 30 μl/min for 10 min. Unreacted groups were blocked by injecting 1 M ethanolamine.
For kinetic studies anti-NOV1401 Fabs (‘Analytes’) were diluted in PBS/T buffer to generate a dilution series with concentrations ranging from 0.125-4 nM. Fabs were injected onto surfaces with immobilized NOV1401 at a flow rate of 100 μL/min and sensorgrams were recorded for association and dissociation times of 220 s and 1800 s, respectively. Blank surfaces were used for background corrections. There was no need to regenerate surfaces since the ProteOn protein interaction array system allows to run up to six binding experiments on an identical surface in parallel.
Data processing and analysis including kon, koff, and KD determination were performed with the ProteOn Manager™ software version 3.1.0.6.

NOV1401 [3] = target: T1, NOV1401; assay: cell-based or functional assay; remark: listed apart in the source
NOV1401 [4] = target: T1, NOV1401; assay: Solution equilibrium titration (SET), 1:1 fit, average
Protocol: (§1) 14 serial (2×) dilutions of NOV1401 were prepared in sample buffer (PBS pH 7.4 containing 0.5% (w/v) BSA and 0.02% Tween 20) and a constant concentration of the anti-NOV1401 Fab or IgG was added to each NOV1401 concentration ranging from 40 pM to 240 pM. Optimal constant anti-NOV1401 Fab or IgG concentrations and optimal starting concentrations for NOV1401 dilution series were determined in pilot experiments.
(§2) After incubation and three times washing with PBST (PBS containing 0.05% Tween 20) 30 μl/well of the NOV1401/anti-NOV1401 Fab or IgG preparation was transferred from the polypropylene MTP to the NOV1401-coated SA plate and incubated for 30 min at RT on a MTP shaker. After three additional wash steps, 30 μl of 0.5 μg/ml detection antibody (Goat anti-human Kappa LC-HRP, BETHYL # A80-115P) diluted in sample buffer was added to each well and incubated for 1 h at RT with shaking. After washing the plate again three times, 30 μl of detection reagent (LumiGLO Peroxidase Chemiluminescent Substrate, KPL #54-61-01) was added to each well. Electrochemiluminescence (ECL) signals were generated and detected immediately with a luminescence imager (SpectraMax M5, Molecular Devices, LLC).
Average ECL-signals were calculated from duplicate measurements within each assay. Data were baseline adjusted by subtracting the lowest value from all data points and plotted against the corresponding antigen concentration. KD values were determined by fitting the plot with the following non-linear curve fitting model for 1:1 binding according to Haenel et al 2005: […]

NOV1401 [5] = target: T1, NOV1401; assay: SET (solution equilibrium titration): constant anti-NOV1401 Fab with a NOV1401 dilution series, free Fab captured on a biotinylated-NOV1401 streptavidin plate, luminescence (RLU), 1:1 fit
Protocol: as §1
as §2, with “After washing the plate again three times, 30 μl of detection reagent (LumiGLO Peroxidase Chemiluminescent Substrate, KPL #54-61-01) was added to each well.” left out
(§3) Average ECL-signals were calculated from duplicate measurements within each assay. […] KD values were determined by fitting the plot with the following non-linear curve fitting model for 1:1 binding according to Haenel et al 2005: […]
Target sequence in this assay (VL, as listed by the source): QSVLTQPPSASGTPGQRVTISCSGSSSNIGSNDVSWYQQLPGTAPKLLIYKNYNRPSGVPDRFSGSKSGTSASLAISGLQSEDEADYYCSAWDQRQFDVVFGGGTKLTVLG

NOV1401 [6] = target: T1, NOV1401; assay: Solution equilibrium titration (SET), IgG, 1:1 fit, average
Protocol: as §1
as §2, with “After washing the plate again three times, 30 μl of detection reagent (LumiGLO Peroxidase Chemiluminescent Substrate, KPL #54-61-01) was added to each well.” left out
as §3
Target sequence in this assay (VL, as listed by the source): as above

| aPTT percentage reversal, NOV1401/anti NOV1401 ratio 1/1 (n/n) (NOV1401 [1]) [%] | aPTT percentage reversal, NOV1401/anti NOV1401 ratio 1/3 (n/n) (NOV1401 [1]) [%] | aPTT percentage reversal, NOV1401/anti NOV1401 ratio 1/10 (n/n) (NOV1401 [1]) [%] | Kd (NOV1401 [2]) [nM] | TGA percentage reversal, NOV1401/anti NOV1401 ratio 1/1 (n/n) (NOV1401 [3]) [%] | TGA percentage reversal, NOV1401/anti NOV1401 ratio 1/3 (n/n) (NOV1401 [3]) [%] | TGA percentage reversal, NOV1401/anti NOV1401 ratio 1/10 (n/n) (NOV1401 [3]) [%] | Kd (NOV1401 [4]) [nM] | Kd (NOV1401 [5]) [nM] | Kd (NOV1401 [6]) [nM] | Binder |
| --- | --- | --- | --- | --- | --- | --- | --- | --- | --- | --- |
| 21 | 42 | 55 | 0.23 | 55 | 57 | 61 | 0.1 |  |  | IDT2 (Fab, V domains shown, Fab; also called anti-NOV1401 Fab IDT2) VH: QVQLVESGGGLVKPGGSLRLSCAASGFTFSSAAVHWVRQAPGKGLEWVGRIKSKADGGTTDYAAPVKGRFTISRDDSKNTLYLQMNSLKTEDTAVYYCARDSPSISSYSIPYFSGMDVWGQGTLVTVSS VL: DIQMTQSPSSLSASVGDRVTITCRASQGIRAWLNWYQQKPGKAPKLLIYAASSLQSGVPSRFSGSGSGTDFTLTISSLQPEDFATYYCHQYITHPPTFGQGTKVEIKR |
| 16 | 37 | 54 | 0.33 | 50 | 66 | 71 | 0.96 | 0.16 |  | IDT7 (Fab, V domains shown, Fab; also called anti-NOV1401 Fab IDT7) VH: QVQLVESGGGLVKPGGSLRLSCAASGFTFSSNAMHWVRQAPGKGLEWVGRIKSKTDGGTTDYAAPVKGRFTISRDDSKNTLYLQMNSLKTEDTAVYYCARDHYYYPFAYWGQGTLVTVSS VL: DIQMTQSPSSLSASVGDRVTITCRASQSIRYNLAWYQQKPGKAPKLLIYAASSLQSGVPSRFSGSGSGTDFTLTISSLQPEDFATYYCHQYIAKPITFGQGTKVEIKR |
| 10 | 25 | 46 | 1.92 | 41 | 61 | 72 | 0.68 |  |  | IDT9 (Fab, V domains shown, Fab; also called anti-NOV1401 Fab IDT9) VH: QVQLVQSGAEVKKPGASVKVSCKASGYTFTNYYVHWVRQAPGQGLEWMGWINPYNGNTNYAQKFQGRVTMTRDTSISTAYMELSRLRSEDTAVYYCARGASSIRMSYYLDVWGQGTLVTVSS VL: DIQMTQSPSSLSASVGDRVTITCRASQSISNYLNWYQQKPGKAPKLLIYAASNLQSGVPSRFSGSGSGTDFTLTISSLQPEDFATYYCFQYTHSPATFGQGTKVEIKR |
| 10 | 27 | 39 | 0.31 | 33 | 53 | 60 | 0.97 |  |  | IDT4 (Fab, V domains shown, Fab; also called anti-NOV1401 Fab IDT4) VH: QVQLVESGGGLVKPGGSLRLSCAASGFTFSSAAVHWVRQAPGKGLEWVGRIKSKASGGTTDYAAPVKGRFTISRDDSKNTLYLQMNSLKTEDTAVYYCARDSPSISSYSIPYFSGMDVWGQGTLVTVSS VL: DIQMTQSPSSLSASVGDRVTITCRASQGIRAWLNWYQQKPGKAPKLLIYAASSLQSGVPSRFSGSGSGTDFTLTISSLQPEDFATYYCHQYITHPPTFGQGTKVEIKR |
| 8 | 25 | 42 | 2.15 | 41 | 56 | 69 | 0.16 | 0.96 |  | IDT8 (Fab, V domains shown, Fab; also called anti-NOV1401 Fab IDT8) VH: QVQLVESGGGLVKPGGSLRLSCAASGFTFSSNAMHWVRQAPGKGLEWVGRIKSKTSGGTTDYAAPVKGRFTISRDDSKNTLYLQMNSLKTEDTAVYYCARDHYYYPFAYWGQGTLVTVSS VL: DIQMTQSPSSLSASVGDRVTITCRASQSIRYNLAWYQQKPGKAPKLLIYAASSLQSGVPSRFSGSGSGTDFTLTISSLQPEDFATYYCHQYIAKPITFGQGTKVEIKR |
| 12 | 25 | 40 | 5.97 | 37 | 45 | 57 | 1.19 |  |  | IDT10 (Fab, V domains shown, Fab; also called anti-NOV1401 Fab IDT10) VH: QVQLVQSGAEVKKPGASVKVSCKASGYTFTNYYVHWVRQAPGQGLEWMGWINPYSGNTNYAQKFQGRVTMTRDTSISTAYMELSRLRSEDTAVYYCARGASSIRMSYYLDVWGQGTLVTVSS VL: DIQMTQSPSSLSASVGDRVTITCRASQSISNYLNWYQQKPGKAPKLLIYAASNLQSGVPSRFSGSGSGTDFTLTISSLQPEDFATYYCFQYTHSPATFGQGTKVEIKR |
| 17 | 42 | 56 | 0.35 | 55 | 56 | 72 | 0.14 |  |  | IDT5 (Fab, V domains shown, Fab; also called anti-NOV1401 Fab IDT5) VH: QVQLVESGGGLVKPGGSLRLSCAASGFTFSSAAVHWVRQAPGKGLEWVGRIKSKADAGTTDYAAPVKGRFTISRDDSKNTLYLQMNSLKTEDTAVYYCARDSPSISSYSIPYFSGMDVWGQGTLVTVSS VL: DIQMTQSPSSLSASVGDRVTITCRASQGIRAWLNWYQQKPGKAPKLLIYAASSLQSGVPSRFSGSGSGTDFTLTISSLQPEDFATYYCHQYITHPPTFGQGTKVEIKR |
| 19 | 55 | 57 |  | 50 | 59 | 67 |  |  | 0.0007 | IDT11 (antibody, human IgG1, kappa, V domains shown, also called anti-NOV1401 IgG IDT11; full length IgG format for IDT1) VH: QVQLLESGGGLVQPGGSLRLSCAASGFTFSDYAMSWVRQAPGKGLEWVSVIDYSSSNTYYADSVKGRFTISRDNSKNTLYLQMNSLRAEDTAVYYCAREGYSYRSIRFDYWGQGTLVTVSS VL: DIQMTQSPSSLSASVGDRVTITCRASQSISSNLNWYQQKPGKAPKLLIYAASNLQSGVPSRFSGSGSGTDFTLTISSLQPEDFATYYCLQFDHTPFTFGQGTKVEIKR |
| 9 | 22 | 38 | 10.1 | 18 | 41 | 37 |  |  |  | IDT6 (Fab, V domains shown, Fab with a lambda light chain; also called anti-NOV1401 Fab IDT6) VH: QVQLVQSGAEVKKPGESLKISCKGSGYSFTNYWIGWVRQMPGKGLEWMGIIFPGVSYTKYSPSFQGQVTISADKSISTAYLQWSSLKASDTAMYYCARGSDQTLRGSRAMDYWGQGTLVTVSS VL: QSALTQPASVSGSPGQSITISCTGTSSDVGISNYVSWYQQHPGKAPKLMIYEVSNRPSGVSNRFSGSKSGNTASLTISGLQAEDEADYYCQSYTSLNYVFGGGTKLTVLG |
